# From US20260124324A1, “PHOTOCLICK CHEMISTRY OF SILK FOR TEMPORARY UV TATTOOS” (Trustees of Tufts College, priority 2023, published 2026)
# Where two headings read alike, the source gives them in different places.
# Assays:
# [1] = pyrazoline bound to SilMA, derived from the named DAT
# Experimental: Fluorophores bound to either silk or PEG-DA were generated by dissolving a DAT precursor to a final concentration of 100 μM in water for silk-bound fluorophores and either DIW, IPA or ethyl acetate (EtAc) for PEG-DA-bound fluorophores. These were reacted by exposure to 302 nm light (specs) for 10 minutes under constant stirring. To an opaque black 96-well plate (Corning 3915) was added 3 separate 100 μL aliquots of fluorophore solution. These were measured by a Molecular Devices SpectraMax M2 plate reader, exciting at either 300, 365 or 405 nm and recording spectra from 25 nm […] the excitation wavelength down to 650 nm with a 5 nm resolution.
# [2] = Fluorescence titration (pH dependence, pKa) of PEG-DA-bound pyrazolines; format: physicochemical
# Experimental: A 100 mL beaker was placed on a stir plate and filled with 50 mL of either deionized water or isopropyl alcohol and a magnetic stirrer. Fluorescent pyrazoline bound to PEG was added to a final concentration of 1 mg/mL and stirred until homogenous. An Ocean Optics SR fiber spectrometer was attached to a UV-Vis optical fiber (200-800 nm, 200 μm core diameter) and the fiber was mounted such that it was normal to the surface of the liquid. A 365 nm LED was placed at such that it illuminated the beaker from the side, perpendicular to the orientation of the fiber. If deionized water was used as the solvent, a pH probe was immersed in the liquid as well. The LED was switched on and the spectrometer exposure time was adjusted until the fluorescent peak reached at least 1000 counts or 3 seconds of exposure, whichever occurred first. During capture 5 exposures were averaged and smoothed by a 9-point moving average. […]
# To determine the exact pH dependance of the fluorescence transition, fluorescence was monitored during an acid-base titration with a custom optical set-up (FIG. 12). […]
# Resulting titrations generally produced either a sigmoidal curve with high and low pH stable regimes (FIG. 14A) or a static, pH independent fluorescence (FIG. 14B). […] The pKa values estimated by fluorescence are generally within their estimated pKa windows, with the exception of the amino derivatives (FIG. 14D). […]
# [3] = DAT precursor, UV-Vis absorption
# Experimental: Spectroscopy was performed using a Synergy HT plate reader in with sample Corning Costar UV-transparent 96 well plates (Corning 3635). Initially samples were diluted to 1 mg/mL in either IPA or DIW and a dilution curve was made with each step reducing the concentration by half. The concentration chosen for measurement was the most concentrated sample that had the peak of interest entirely below 1.0 absorption units. When an appropriate concentration was found 100 μL of sample was then loaded into each well with samples loaded in triplicate. If the standard deviation between replicates exceeded 0.05 AU the measurement was repeated with fresh samples.
# [4] = Patterned fluorescent films (SilMA or SF/PEG-DA); format: physicochemical
# Experimental: Multispectral imaging was performed with a Nuance FX multispectral imaging system with a Canon macro lens and illuminated by 365 nm light. Exposure times were varied by sample and were selected by automatic exposure timing in the acquisition software. Images were processed using Nuance software and spectral elements were picked by hand from at least 20 sample locations. Raw processed spectra had large discontinuities introduced by the internal monochromator, which were removed with a custom algorithm.
# A glass coverslip (22×22 mm) was placed onto the vacuum chuck of a Laurell WS-650 spin coater. Onto the surface was pipetted 100 μL of silk solution (7.0% w/w silk fibroin, 0.7% w/w polyethylene glycol diacrylate), which was manually spread to cover the entire surface. […] The sample was then water vapor annealed by being placed in a Memmert UN 30 Plus humidity-controlled oven at 45 C and 90% relative humidity. A timer was started once the oven had reached 90% humidity after then drop due to sample addition and allowed to sit in the oven for 5.0 minutes. Once removed the sample was loaded onto the vacuum chuck again and 30 μL of DAT solution (5 mg/mL DAT in isopropyl alcohol) was dropped onto the surface. A combined spreading/evaporation program was run with a single 20 second phase (4000 RPM, 250 RPM/sec). The sample was then covered by a photomask and exposed to 302 nm UV light (Labortechnik UVLMS-38 8 Watt UV multiwavelength lamp) to induce the photoclick reaction. If a multi-emitter film was to be fabricated, then a PDMS isolation layer must be applied if the lower layer is composed of SF/PEG-DA. To form the isolation layer, Sylgard 184 monomer was mixed with curing agent in a 10:1 ratio and 500 μL was applied to the glass slide by spin coating (5 sec, 500 RPM spread, 30 sec 5000 RPM thinning, 500 RPM/sec acceleration). This was cured by heating the slide on a 80 C hotplate for 30 minutes. The subsequent layer could then be applied in an identical manner to the first. If SilMA was used as the lower layer, the isolation layer is not needed and the second layer can be applied directly.
# Films were fabricated with a spin-coating process, where either SilMA or a mixture of SF and PEGDA were dropped onto glass coverslips and spun to produce uniform films. Afterwards the films were water vapor annealed to recrystallize them and lock in the position of the polymer(s). Next a solution of the DAT dye in IPA or DI water was drop cast onto the surface, then spun to remove excess solution. This film was then exposed to 302 nm UV light through a quartz photomask or steel shadow mask for 30 seconds. The DAT impregnated films reacted promptly and attained 60% of their full fluorescent brightness in 30 seconds and their maximum brightness in less than 5 minutes (FIG. 21A,B). […]
# [5] = literature values of related compounds; cited from earlier work
Compound,Emission λmax ([1]; pH 3) [nm],Excitation λmax ([1]; pH 3) [nm],Emission λmax ([1]; pH 10) [nm],Excitation λmax ([1]; pH 10) [nm],pH at which highly emissive state is centered [2],Excitation λmax ([3]; peak 1) [nm],fluorescence of resulting pyrazoline in film ([4]; PEG-DA/SF films),fluorescence of resulting pyrazoline in film ([4]; SilMA films),pKa [5],Excitation λmax ([3]; peak 2) [nm],Excitation λmax ([3]; peak 3) [nm]
"O=C(O)c1ccc(-c2nnn(-c3ccc(B(O)O)cc3)n2)cc1 [DAT-5, 2-(4-boronophenyl)-5-(4-carboxyphenyl)-2H-tetrazole]",505,370,475,380,6,285,,,,,
"Nc1cccc(-c2nnn(-c3ccccc3)n2)c1 [DAT-9, 5-(3-aminophenyl)-2-phenyl-2H-tetrazole]",455,365,460,375,,271,visible,nearly completely quenched,,,
OB(O)O [boric acid],,,,,,,,,9.15,,
"O=[N+]([O-])c1cccc(-c2nnn(-c3ccccc3)n2)c1 [DAT-7, 5-(3-nitrophenyl)-2-phenyl-2H-tetrazole]",,,,,,266,,,,,
"Oc1ccc(-c2nnn(-c3ccccc3)n2)cc1 [DAT-10, 5-(4-hydroxyphenyl)-2-phenyl-2H-tetrazole]",435,,435,355,,253,visible,nearly completely quenched,,281,300
"O=C(O)c1ccc(-c2nnn(-c3ccc(S(=O)(=O)O)cc3)n2)cc1 [DAT-3, 2-(4-sulfophenyl)-5-(4-carboxyphenyl)-2H-tetrazole]",490,385,460,375,,279,,,,,
"O=[N+]([O-])c1ccc(-c2nnn(-c3ccccc3)n2)cc1 [DAT-6, 5-(4-nitrophenyl)-2-phenyl-2H-tetrazole]",,,,,,296,,,,,
"O=C(O)c1ccc(-c2nnn(-c3ccc(O)cc3)n2)cc1 [DAT-4, 2-(4-hydroxyphenyl)-5-(4-carboxyphenyl)-2H-tetrazole]",530,335,530,360,,296,,,,,
"CCOC(=O)c1ccc(-n2nnc(-c3ccc(C(=O)O)cc3)n2)cc1 [DAT-2, 2-(4-(ethoxycarbonyl)-phenyl)-5-(4-carboxyphenyl)-2H-tetrazole]",460,370,455,350,,265,,,,,
"Nc1ccc(-c2nnn(-c3ccccc3)n2)cc1 [DAT-8, 5-(4-aminophenyl)-2-phenyl-2H-tetrazole]",,,,,,294,,,,,
